Results on 3 proteins are retold here after PMC5404360, “Identification of a Novel (-)-5-Epieremophilene Synthase from Salvia miltiorrhiza via Transcriptome Mining” (Frontiers in Plant Science, 2017).

Holding throughout (assay): GC-MS product quantification, Michaelis-Menten fit
Type in all cases: biochemical, Salvia miltiorrhiza
What all share (conditions): Mg2+ (5 mM MgCl2), 25 mM HEPES pH 7.0, 5 mM DTT, 30°C, 5 min, FPP 2.3-184.6 μM

Substrate in data set [1]: CC(C)=CCC/C(C)=C/CC/C(C)=C/CO[P@@](=O)(O)OP(=O)(O)O
The text has this: GC-MS product quantification, Michaelis-Menten fit on […]2

Substrate in data set [2]: CC(C)=CCC/C(C)=C/CC/C(C)=C/CO[P@@](=O)(O)OP(=O)(O)O
The text has this: GC-MS product quantification, Michaelis-Menten fit on […]3
The source holds these as a separate data set.

Substrate in data set [3]: CC(C)=CCC/C(C)=C/CC/C(C)=C/CO[P@@](=O)(O)OP(=O)(O)O
An excerpt:
GC-MS product quantification, Michaelis-Menten fit on […]1
The source holds these as a separate data set.

Numbering of substitutions follows the chain as printed.

B1: SmSTPS2 (Salvia miltiorrhiza) (protein)
chain: MATTQVEIQRPIANFSPSLWGDQFIKNDSGAKAAEKHCKAVEELKKEVMNMITAGGSNLVEAMNLIDTLERLGISYHFEKEIDQKLNHFFNLNTDYSDEFYDLYTVSLHFRLFRQHGHRISSDIFGRWIDESGKFKEGLKTDGKGLLSLYEASYLRTRGETILDDALEFATATLNSIAPHLESPLSKQVVHALIQPLHYGNPRIEAHNFISIYEENQDKNEFLLKFAKLDYNLLQMLHKEELHEVSRWWKELDLVSKLPYARDRVVECFFWAMGVYHEPQYSRARIMLTKTITMTSIIDDTYDAYGVIEELDIFTEAIERWNIEEMDRLPEYVKPFYKALLELYEQFEEELAEEGRSYAAHYAIESLKELVRSYHVEAKWFIQGYLPPFEEYLKNALITCTYCYHTTTSLLGVESAVEEDFQWLAKKPKMLVAGLLICRVIDDIATYEVEKERGQSATGIESYMRDNNATIEEAVAKFFEIATDAWKDINEECLMPSPYSRDVLMRILNLERIIDVTYKGNEDGYTQPEKVLKPHIIALFVDPIKM
notes: full-length ORF, 546 aa, in pET-32a (N-terminal thioredoxin/His tag fusion, kept), E. coli Rosetta (DE3), Ni-NTA purified
On to B1, for which, in data set [1], the Michaelis-Menten constant (Km) (as a rule, the substrate concentration at which the rate is half of its maximum) amounted to 24.20 ± 0.84 µM; the catalytic constant (kcat) (as a rule, the maximal rate divided by the concentration of active sites) came out at 2.07 ± 0.13 s⁻¹; the catalytic efficiency (kcat/Km) (commonly the second-order rate constant that governs catalysis at low substrate concentration) worked out at 85600 ± 38200 M⁻¹ s⁻¹.

B2: SmSTPS3 (Salvia miltiorrhiza) (protein)
chain: B1 chain with G55A, G56E, N91S, F100S
notes: as for B1
With B2, in data set [2], the Km is 10.44 ± 1.07 µM, the kcat stood at 1.53 ± 0.02 s⁻¹ and the catalytic efficiency (kcat/Km) stood at 148000 ± 13200 M⁻¹ s⁻¹.

B3: SmSTPS1 (Salvia miltiorrhiza) (protein)
chain: MATTQAQIQRPIANFSPSLWGDQFIKNDPGAKAAEKHCKAVEELKKEVMNMITAAGSNLVEAMNLIDTLERLGISYHFEKEIDQKLKHFFNLNKDYSDESYDLYTVSLHFRLFRQHGHRISSDIFGRWIDESGKFKEGLKTDGKGLLSLYEASYLRTRGETILDDALEFATATLNSIAPHLESPLSKQVVHALIQPLHYGNPRIEAHNFISIYEENQDKNEFLLRFAKLDYNLLQMLHKEELNEVSRWWKELDLVSKLPYARDRVVECFFWAMGVYHEPQYSRARIMLTKTITMTSIIDDTYDAYGVIEELDIFTEAIERWNMEEMKKLPEYIQPFYKALLELYEQFEEELAEEGRSYAAHYAIESLKELVRSYHVEAKWFIQGYLPPFEEYLKNALITCTYCYHTTTSLLGVESAVEEDFEWLANKPKMLVAGLLICRVIDDIATYEVEKERGQSATGIESYMRDNNATIEEAVAKFFEIATDAWKDINEECLMPSPYSRDVLMRILNLERIIDVTYKGNEDGYTQPEKVLKPHIIALFVDPIKM
notes: as for B1
As to B3, in data set [3], the Michaelis constant (Km) amounted to 25.35 ± 1.88 µM, the kcat was found to be 2.09 ± 0.05 s⁻¹ and the catalytic efficiency (kcat/Km) was found to be 82700 ± 40600 M⁻¹ s⁻¹.
